Consider two molecules from publication PMC12439145, “Aptamer-based drug delivery for targeted therapy of imatinib-resistant gastrointestinal stromal tumor”.

The target in data set [1] is T1, KIT (recombinant, YEASEN 93764ES80) (UniProt P10721 26-524). The experiment in a line: SPR; KIT immobilized on CM5 chip; SPR at 25 C, His-KIT on CM5 chip, 50 mM NaOH regeneration; flow cytometry with 250 nM Cy5-aptamer in binding buffer with 1 mg/ml BSA and 1 mM yeast tRNA; salt and pH not given in material. The conditions noted are these: protein: commercial; tags: His-tag; label: Cy5 in flow cytometry; predicted stem-loop.
T1 sequence (P10721 26-524): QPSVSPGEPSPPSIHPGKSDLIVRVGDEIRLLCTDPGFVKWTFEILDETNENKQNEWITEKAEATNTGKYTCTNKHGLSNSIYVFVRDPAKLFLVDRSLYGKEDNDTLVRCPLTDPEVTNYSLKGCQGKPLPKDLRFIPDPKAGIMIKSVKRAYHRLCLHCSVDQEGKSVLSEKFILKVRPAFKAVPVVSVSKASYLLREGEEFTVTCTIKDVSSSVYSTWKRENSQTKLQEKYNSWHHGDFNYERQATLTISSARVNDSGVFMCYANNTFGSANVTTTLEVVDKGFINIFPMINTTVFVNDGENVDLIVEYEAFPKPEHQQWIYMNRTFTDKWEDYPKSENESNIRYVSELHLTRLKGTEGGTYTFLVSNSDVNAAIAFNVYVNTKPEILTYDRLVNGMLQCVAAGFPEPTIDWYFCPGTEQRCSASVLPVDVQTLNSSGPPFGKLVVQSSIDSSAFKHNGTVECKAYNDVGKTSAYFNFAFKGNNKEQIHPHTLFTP

The target in data set [2] is T1, KIT (recombinant, YEASEN 93764ES80). The data set is described as follows: flow cytometry; KIT coated on aldehyde/sulfate latex beads; SPR at 25 C, His-KIT on CM5 chip, 50 mM NaOH regeneration; flow cytometry with 250 nM Cy5-aptamer in binding buffer with 1 mg/ml BSA and 1 mM yeast tRNA; salt and pH not given in material. Particulars: protein: commercial; tags: His-tag; label: Cy5 in flow cytometry; predicted stem-loop.

B1: KIT-w (ssDNA)
DNA: GAGGCATACCAGCTTATTCAAGGGGCCGGGGCAAGGGGGGGGTACCGTGGTAGGACATAGTAAGTGCAATCTGCGAA
Consider B1, for which the figures for the Kd in data set [1] and in data set [2] were 84 nM and 106 nM, respectively.

B2: KIT-d (ssDNA)
DNA: ATTCAAGGGGCCGGGGCAAGGGGGGGGTACCGTGGTAGGACATAGT
With B2, the Kd in data set [1] was 71.1 nM; in data set [2], 80.2 nM.

Usually Kd stands for the constant that tells how readily two partners part at equilibrium.
